Experimental data published in patent US20190345255A1.

Legend:
[1] = target: Mouse recombinant MGL2 (macrophage galactose binding lectin 2) (mouse); assay: competition ELISA on MGL2-coated plate; 10 µg/mL Tn-BSA against 10 µg/mL biotinylated Tn-PS A1 probe 25a (a polysaccharide) as competitor
[2] = target: Mouse recombinant MGL2 (macrophage galactose binding lectin 2) (mouse); assay: competition ELISA on MGL2-coated plate; 10 µg/mL Tn-BSA against 10 µg/mL biotinylated TF-PS A1 probe 25b (a polysaccharide) as competitor
[3] = target: Tn-BSA (Tn antigen conjugated to bovine serum albumin) (bovine) (UniProt P02769); assay: ELISA titration of purified IgM, Tn-BSA coated plates
Chain of UniProt P02769 (P02769 25-607 limits assumed, form in doubt): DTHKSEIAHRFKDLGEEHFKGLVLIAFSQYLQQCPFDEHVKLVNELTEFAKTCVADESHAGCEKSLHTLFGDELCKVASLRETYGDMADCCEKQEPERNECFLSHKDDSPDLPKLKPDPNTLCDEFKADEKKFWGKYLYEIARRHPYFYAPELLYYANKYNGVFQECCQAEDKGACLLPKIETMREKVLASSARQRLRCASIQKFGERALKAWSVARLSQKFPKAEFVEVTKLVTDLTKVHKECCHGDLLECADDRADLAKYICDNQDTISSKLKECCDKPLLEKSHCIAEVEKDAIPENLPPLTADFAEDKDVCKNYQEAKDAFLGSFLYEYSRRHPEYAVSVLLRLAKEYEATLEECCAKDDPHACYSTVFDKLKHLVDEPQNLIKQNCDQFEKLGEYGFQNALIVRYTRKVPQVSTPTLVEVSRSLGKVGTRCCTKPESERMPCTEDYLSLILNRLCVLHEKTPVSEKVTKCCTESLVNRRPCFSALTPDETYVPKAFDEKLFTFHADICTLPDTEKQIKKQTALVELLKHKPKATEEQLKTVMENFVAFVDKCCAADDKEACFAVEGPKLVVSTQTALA

Molecule | percent inhibition [1] [%] | percent inhibition [2] [%] | optical density (O.D.) at 0.3 µg/mL antibody [3] [O.D.]
Tn-BSA (Tn antigen conjugated to bovine serum albumin) (from UniProt P02769 25-607) | 44 | 64 | –
Kt-IgM-8 (antibody, V domains shown) VH: QIQLVQSGPELKKPGETVKISCKASGYTFTTYGMSWVKQAPGKGLKWMGWINTYSGVPTYADDFKGRFAFSLETSASTAYLQINNLKNEDTATYFCARHYYGGAYWGQGTLVTVSA VL: QIVLTQSPAIMSASPGEKVTMTCSASSSVSYMHWYQQKSGTSPKRWIYDTSKLASGVPARFSGSGSGTSYSLTISSMEAEDAATYYCQQWSSNPLTFGAGTKLELK | – | – | > 0.2
